First the molecules themselves.
B1: GpH7-A5/GpH7-B3 variant S239_07I/GpL16-k0 (antibody, human IgG1, kappa)
heavy 1: not shown
heavy 2: not shown
light: DIVMTQSPLSLPVTPGEPASISCQASESLVHSNRNTYLHWYLQKPGQSPQLLIYKVSNRFSGVPDRFSGSGSGTDFTLKISRVEAEDVGVYYCSQNTHVPPTFGQGTKVEIERTVAAPSVFIFPPSDEQLKSGTASVVCLLNNFYPREAKVQWKVDNALQSGNSQESVTEQDSKDSTYSLSSTLTLSKADYEKHKVYACEVTHQGLSSPVTKSFNRGEC
notes: Heterodimerized anti-glypican-3 IgG1; the mutation is in the GpH7-B3 chain only; also called He Ab
B2: GpH7-A5/GpH7-B3 variant S239_19Q/GpL16-k0 (antibody, human IgG1, kappa)
heavy 1: not shown
heavy 2: not shown
light: B1 light
notes: as for B1
B3: GpH7-A5/GpH7-B3 variant S239_04F/GpL16-k0 (antibody, human IgG1, kappa)
heavy 1: not shown
heavy 2: not shown
light: B1 light
notes: as for B1
B4: GpH7-A5/GpH7-B3 variant P238_12R/GpL16-k0 (antibody, human IgG1, kappa)
heavy 1: not shown
heavy 2: not shown
light: B1 light
notes: as for B1
B5: GpH7-A5/GpH7-B3 variant P238_15Y/GpL16-k0 (antibody, human IgG1, kappa)
heavy 1: not shown
heavy 2: not shown
light: B1 light
notes: as for B1
B6: GpH7-A5/GpH7-B3 variant S239_05P/GpL16-k0 (antibody, human IgG1, kappa)
heavy 1: not shown
heavy 2: not shown
light: B1 light
notes: as for B1
B7: GpH7-A5/GpH7-B3 variant S239_08L/GpL16-k0 (antibody, human IgG1, kappa)
heavy 1: not shown
heavy 2: not shown
light: B1 light
notes: as for B1
B8: GpH7-A5/GpH7-B3 variant P238_11K/GpL16-k0 (antibody, human IgG1, kappa)
heavy 1: not shown
heavy 2: not shown
light: B1 light
notes: as for B1
B9: GpH7-A5/GpH7-B3 variant P238_10E/GpL16-k0 (antibody, human IgG1, kappa)
heavy 1: not shown
heavy 2: not shown
light: B1 light
notes: as for B1
B10: GpH7-A5/GpH7-B3 variant P238_19Q/GpL16-k0 (antibody, human IgG1, kappa)
heavy 1: not shown
heavy 2: not shown
light: B1 light
notes: as for B1
B11: GpH7-A5/GpH7-B3 variant P238_18N/GpL16-k0 (antibody, human IgG1, kappa)
heavy 1: not shown
heavy 2: not shown
light: B1 light
notes: as for B1
B12: GpH7-A5/GpH7-B3 variant P238_20W/GpL16-k0 (antibody, human IgG1, kappa)
heavy 1: not shown
heavy 2: not shown
light: B1 light
notes: as for B1
B13: GpH7-A5/GpH7-B3 variant P238_04F/GpL16-k0 (antibody, human IgG1, kappa)
heavy 1: not shown
heavy 2: not shown
light: B1 light
notes: as for B1
B14: GpH7-A5/GpH7-B3 variant G236_06M/GpL16-k0 (antibody, human IgG1, kappa)
heavy 1: not shown
heavy 2: not shown
light: B1 light
notes: Heterodimerized anti-glypican-3 IgG1; mutation only in the GpH7-B3 H chain; also called He Ab
B15: GpH7-A5/GpH7-B3 variant G236_08L/GpL16-k0 (antibody, human IgG1, kappa)
heavy 1: not shown
heavy 2: not shown
light: B1 light
notes: as for B14
B16: GpH7-A5/GpH7-B3 variant G236_11K/GpL16-k0 (antibody, human IgG1, kappa)
heavy 1: not shown
heavy 2: not shown
light: B1 light
notes: as for B14
B17: GpH7-A5/GpH7-B3 variant G236_07I/GpL16-k0 (antibody, human IgG1, kappa)
heavy 1: not shown
heavy 2: not shown
light: B1 light
notes: as for B14

T2 sequence (P12314 16-292): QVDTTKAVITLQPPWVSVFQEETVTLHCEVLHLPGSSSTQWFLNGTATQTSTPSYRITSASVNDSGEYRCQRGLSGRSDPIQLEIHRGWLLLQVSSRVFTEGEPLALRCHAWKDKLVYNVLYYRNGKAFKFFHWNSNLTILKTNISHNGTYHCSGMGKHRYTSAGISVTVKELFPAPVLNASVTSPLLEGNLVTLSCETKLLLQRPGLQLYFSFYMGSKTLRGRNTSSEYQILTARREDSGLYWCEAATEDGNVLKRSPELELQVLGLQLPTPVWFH

The target of one experiment is T1, FcγRIIIa (human, UniProt P08637 17-208).
T1 construct: extracellular domain; Soluble extracellular domain with a C-terminal His tag; also called FcgRIIIa; 3a; not shown: His tag attached to the C terminus
T1 sequence (P08637 17-208): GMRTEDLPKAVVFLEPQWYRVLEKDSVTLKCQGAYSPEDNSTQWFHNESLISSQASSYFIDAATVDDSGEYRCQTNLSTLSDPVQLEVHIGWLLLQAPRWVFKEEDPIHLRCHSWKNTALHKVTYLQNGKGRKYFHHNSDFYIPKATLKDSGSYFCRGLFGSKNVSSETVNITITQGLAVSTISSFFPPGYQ
Description: SPR; He/Con_3a (FcγRIIIa) divided by He/Con_2b (FcγRIIb).
Take B1: the “He_3a/2b (IIIa/IIb)” value came out at 0.74 ratio.
Same read-out and setting: to B2 belongs 0.66 ratio; to B3, 0.57 ratio; to B4, 0.24 ratio.
On the same count and under the same terms, to B5 belongs 0.3 ratio; to B6, 0.15 ratio.
Still for that read-out and setting: to B7 belongs 0.68 ratio; to B8, 0.57 ratio.
B9: the “He_3a/2b (IIIa/IIb)” value was 0.45 ratio.
Consider B10, for which the “He_3a/2b (IIIa/IIb)” value was 0.51 ratio.
Same read-out and setting: the value for B11 was 0.55 ratio; that for B12 was 0.4 ratio; that for B13 was 0.15 ratio.

Another experiment addresses T2, FcγRIa extracellular domain with C-terminal His tag (human, UniProt P12314 16-292).
T2 construct: extracellular domain; also called FcgRI; CD64; not shown: His tag at the C terminus
The experiment in a line: SPR; He/Con_1a divided by He/Con_2b (FcγRIa against FcγRIIb).
Regarding B14, the “He_1a/2b (Ia/IIb)” value came to 2.13 ratio.
On the same count and under the same terms, to B15 belongs 2.97 ratio.
Consider B16, for which the “He_1a/2b (Ia/IIb)” value stood at 1.42 ratio.
Same read-out and setting: to B17 belongs 2.82 ratio.

The target of the next experiment is T3, FcγRIIb extracellular domain with C-terminal His tag (human, UniProt P31994 43-217).
T3 construct: extracellular domain; also called FcgRIIb; CD32B; not shown: His tag at the C terminus
T3 sequence (looked up): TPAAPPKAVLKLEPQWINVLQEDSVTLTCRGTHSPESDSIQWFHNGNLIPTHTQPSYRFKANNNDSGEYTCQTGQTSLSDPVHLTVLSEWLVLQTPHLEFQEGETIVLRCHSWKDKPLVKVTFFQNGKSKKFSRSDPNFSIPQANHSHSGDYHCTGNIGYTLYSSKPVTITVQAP
The experiment in a line: SPR (Biacore), antibody captured, FcγR analyte; relative to GpH7-A5/GpH7-B3/GpL16-k0 = 100.
Turning to B14, the He/Con_2b is 45.5 % of HeCon Ab.
Still for that read-out and setting: to B15 belongs 26.8 % of HeCon Ab; to B16, 49.8 % of HeCon Ab; to B17, 31 % of HeCon Ab.

Another experiment has as its target T2, FcγRIa extracellular domain with …. Described as above.
With B14, the He/Con_1a is 96.7 % of HeCon Ab.
Still for that read-out and setting: the value for B15 was 79.6 % of HeCon Ab; that for B16 was 71 % of HeCon Ab; that for B17 was 87.5 % of HeCon Ab.

The target of the next experiment is T4, FcγRIIb (human, UniProt P31994 43-217).
T4 construct: extracellular domain; Soluble extracellular domain with a C-terminal His tag, expressed in FreeStyle293 cells; also called FcgRIIb; 2b; not shown: His tag attached to the C terminus
T4 sequence (looked up): T3 sequence (looked up)
Description: SPR (Biacore), antibody captured on chip, FcγR as analyte.
As for B1, the He/Con_2b is 107 relative binding, GpH7-A5/GpH7-B3/GpL16-k0 = 100.
Still for that read-out and setting: to B2 belongs 86.1 relative binding, GpH7-A5/GpH7-B3/GpL16-k0 = 100.
The same measure, in the same setting: to B3 belongs 44.1 relative binding, GpH7-A5/GpH7-B3/GpL16-k0 = 100.
B4: the He/Con_2b is 51.4 relative binding, GpH7-A5/GpH7-B3/GpL16-k0 = 100.
Still for that read-out and setting: the value for B5 was 218 relative binding, GpH7-A5/GpH7-B3/GpL16-k0 = 100; that for B6 was 102 relative binding, GpH7-A5/GpH7-B3/GpL16-k0 = 100.
The same measure, in the same setting: to B7 belongs 140 relative binding, GpH7-A5/GpH7-B3/GpL16-k0 = 100; to B8, 18.1 relative binding, GpH7-A5/GpH7-B3/GpL16-k0 = 100; to B9, 232 relative binding, GpH7-A5/GpH7-B3/GpL16-k0 = 100.
Same read-out and setting: the value for B10 was 110 relative binding, GpH7-A5/GpH7-B3/GpL16-k0 = 100; that for B11 was 73.2 relative binding, GpH7-A5/GpH7-B3/GpL16-k0 = 100; that for B12 was 123 relative binding, GpH7-A5/GpH7-B3/GpL16-k0 = 100.
On to B13, for which the He/Con_2b is 312 relative binding, GpH7-A5/GpH7-B3/GpL16-k0 = 100.

Another experiment has as its target T1, FcγRIIIa. The description is as above.
On to B1, for which the He/Con_3a was 79.3 relative binding, GpH7-A5/GpH7-B3/GpL16-k0 = 100.
Same read-out and setting: the value for B2 was 56.9 relative binding, GpH7-A5/GpH7-B3/GpL16-k0 = 100; that for B3 was 25.3 relative binding, GpH7-A5/GpH7-B3/GpL16-k0 = 100; that for B4 was 12.2 relative binding, GpH7-A5/GpH7-B3/GpL16-k0 = 100.
As to B5, the He/Con_3a was 64.5 relative binding, GpH7-A5/GpH7-B3/GpL16-k0 = 100.
Take B6: the He/Con_3a was 14.9 relative binding, GpH7-A5/GpH7-B3/GpL16-k0 = 100.
Same read-out and setting: the value for B7 was 95.3 relative binding, GpH7-A5/GpH7-B3/GpL16-k0 = 100.
On the same count and under the same terms, to B8 belongs 10.4 relative binding, GpH7-A5/GpH7-B3/GpL16-k0 = 100; to B9, 105 relative binding, GpH7-A5/GpH7-B3/GpL16-k0 = 100.
On the same count and under the same terms, the value for B10 was 55.8 relative binding, GpH7-A5/GpH7-B3/GpL16-k0 = 100; that for B11 was 40.4 relative binding, GpH7-A5/GpH7-B3/GpL16-k0 = 100.
As for B12, the He/Con_3a was 49.7 relative binding, GpH7-A5/GpH7-B3/GpL16-k0 = 100.
On the same count and under the same terms, to B13 belongs 46.7 relative binding, GpH7-A5/GpH7-B3/GpL16-k0 = 100.

For the origin of these results see patent US20150344570A1 (published 2015).
